This note sets out measurements from patent US20090317414A1 (4G VACCINES, published 2009).

B1: MUC1-8 (SAPDTRPA) (peptide)
peptide: SAPDTRPA
notes: Synthetic peptide, purity >95%; also called MUC1-8 peptide; parent non-canonical peptide MUC1-8
B2: soluble H-2K^b (soluble extracellular domains; heavy chain residues 1-274 with C-terminal His-tag and β2-microglobulin residues 1-99) (other)
chain: GPHSLRYFVTAVSRPGLGEPRYMEVGYVDDTEFVRFDSDAENPRYEPRARWMEQEGPEYWERETQKAKGNEQSFRVDLRTLLGYYNQSKGGSHTIQVISGCEVGSDGRLLRGYQQYAYDGCDYIALNEDLKTWTAADMAALITKHKWEQAGEAERLRAYLEGTCVEWLRRYLKNGNATLLRTDSPKAHVTHHSRPEDKVTLRCWALGFYPADITLTWQLNGEELIQDMELVETRPAGDGTFQKWASVVVPLGKEQYYTCHVYHQGLPEPLTLRWEPPPSTVSNM

The target of assay [1] is B2. Kind of assay: inhibition assay with soluble H-2K^b, 4° C.
For assay [2], the target named is B2. Kind of assay: inhibition assay with soluble H-2K^b, 37° C.
Assay [3] addresses B2. Kind of assay: inhibition assay with soluble H-2K^b, 23° C.
The target in assay [4] is T1, MHC class I H-2K^b on RMA-S cells (C57BL/6 TAP2-deficient cells) (mouse, UniProt P01887 21-119; P01901 22-369).
T1 construct: whole, on cells; Cell surface H-2K^b stabilised by added peptide and detected with anti-H-2K^b antibody HB-158
T1 sequence (MHC heavy, looked up): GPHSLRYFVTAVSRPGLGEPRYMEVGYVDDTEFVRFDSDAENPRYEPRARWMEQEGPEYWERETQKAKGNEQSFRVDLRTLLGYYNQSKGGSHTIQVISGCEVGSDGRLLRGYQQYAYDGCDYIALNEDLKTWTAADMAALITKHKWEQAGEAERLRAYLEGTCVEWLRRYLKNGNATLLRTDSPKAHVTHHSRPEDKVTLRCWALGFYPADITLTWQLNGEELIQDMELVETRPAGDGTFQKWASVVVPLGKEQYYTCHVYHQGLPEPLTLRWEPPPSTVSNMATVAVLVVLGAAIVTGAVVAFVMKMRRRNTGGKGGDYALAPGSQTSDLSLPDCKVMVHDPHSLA
T1 sequence (b2m, looked up): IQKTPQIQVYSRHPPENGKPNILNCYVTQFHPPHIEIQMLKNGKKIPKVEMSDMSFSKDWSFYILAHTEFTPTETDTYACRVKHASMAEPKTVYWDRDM
Kind of assay: peptide stabilisation assay on RMA-S cells, flow cytometry with anti-H-2K^b. A general note: In flow cytometry, cells or beads pass a laser one at a time.
Method: MHC class I molecules in the murine cell line RMA-S (C57BL/6 TAP2-deficient cells) can be used to measure the direct binding of peptides to class I molecules in vitro. […] The cells were washed once again and 100 μl (1:500 dilution) of FITC-conjugated sheep (Fab′)₂ anti-mouse immunoglobulin was added and incubated for 45 min at 4° C.; after further washing, cells were analyzed by FACScan.

Assay [5] deals with B2. Kind of assay: inhibition assay with soluble H-2K^b, 23° C. and 37° C.
For assay [6], the target named is B2. Kind of assay: inhibition assay with soluble H-2K^b, 23° C. The source holds these as a separate data set.
The target of assay [7] is SEV9 ([…]), Sendai virus NP324-332 (Sendai virus). Kind of assay: inhibition assay with soluble H-2K^b, 4° C.
Assay [8] has the same target. Kind of assay: inhibition assay with soluble H-2K^b, 37° C.
Assay [9] has the same target. Kind of assay: inhibition assay with soluble H-2K^b, 23° C.

A word on the Kd: it is the free concentration of one partner at which half of the binding sites on the other are occupied at equilibrium, for simple one-to-one binding. Consider B1, for which the figures for the Kd in assay [1], in assay [2] and in assay [3] were 433 nM, 37000 nM and 877 nM, respectively. Moreover, the “peptide concentration that stabilised H-2K^b” value in [4] was above 100000 nM.
For SAPDTRPL (Synthetic peptide) [MUC1-8-8L (SAPDTRPL)], the figures for the Kd in assay [1], in assay [2] and in assay [3] were 150 nM, 8900 nM and 250 nM, respectively. Further, the “fold increase in affinity against MUC1-8” value in assay [5] is at least 3 fold. For the same molecule, the “peptide concentration that stabilised H-2K^b” value in assay [4] is above 1000 nM.
Consider SAPDFRPL (Synthetic peptide) [MUC1-8-5F8L (SAPDFRPL)], for which the values for the Kd in [1], in assay [2] and in [3] were 160 nM, 300 nM and 60 nM, respectively. The “fold increase in affinity against MUC1-8” value in assay [6] turned out to be 14 fold. Moreover, the “peptide concentration that stabilised H-2K^b” value in [4] was above 1 nM.
Consider SAPDFRPA (Synthetic peptide) [MUC1-8-5F (SAPDFRPA)], for which the Kd in [1] was 460 nM; in [2], 4900 nM; in assay [3], 130 nM. Moreover, in assay [5], the “fold increase in affinity against MUC1-8” value is at least 7 fold. Also, the “peptide concentration that stabilised H-2K^b” value in assay [4] is above 100 nM.
Turning to SIINFEKL [OVA8 (SIINFEKL), Chicken ovalbumin257-264], the Kd in assay [1] was determined as 6 nM; in assay [2], 82 nM; in assay [3] it was 10 nM.
In the case of B2, the dissociation constant (Kd) in [7] came to 5 nM; in assay [8], 30 nM; in [9] it was 3 nM.
